Laboratory results as given in patent US20170334973A1 (published 2017).

Columns and labels:
Assay in all cases: ELISA
[1] = biological target: EBOV GP[change] (Ebola virus (EBOV), UniProt Q05320)
[2] = biological target: T1, EBOV GPcl (Ebola virus (EBOV), UniProt Q05320 33-200; Q05320 502-632)
T1 chain 1: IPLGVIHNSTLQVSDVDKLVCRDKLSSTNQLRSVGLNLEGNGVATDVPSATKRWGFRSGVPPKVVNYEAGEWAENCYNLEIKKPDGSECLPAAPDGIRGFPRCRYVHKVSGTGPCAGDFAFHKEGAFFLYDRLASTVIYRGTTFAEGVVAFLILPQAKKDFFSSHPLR
T1 chain 2: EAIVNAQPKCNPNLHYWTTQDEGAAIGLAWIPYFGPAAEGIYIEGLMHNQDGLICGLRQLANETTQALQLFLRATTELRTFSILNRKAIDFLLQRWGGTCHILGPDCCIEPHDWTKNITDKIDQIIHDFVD

[3] = biological target: T2, EBOV soluble GP (sGP) (Ebola virus (EBOV), UniProt P60170 33-324)
T2 chain: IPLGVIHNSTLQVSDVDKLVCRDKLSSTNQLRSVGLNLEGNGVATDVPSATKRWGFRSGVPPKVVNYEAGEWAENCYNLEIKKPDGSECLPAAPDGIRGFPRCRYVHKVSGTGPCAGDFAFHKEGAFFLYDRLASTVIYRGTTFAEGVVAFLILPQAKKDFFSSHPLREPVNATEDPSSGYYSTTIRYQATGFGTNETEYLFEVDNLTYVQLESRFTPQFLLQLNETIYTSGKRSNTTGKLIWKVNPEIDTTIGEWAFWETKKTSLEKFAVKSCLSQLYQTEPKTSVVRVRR

Row | Binder | EC50 [1] | EC50 [2] | EC50 [3]
1 | FVM01P (antibody, V domains shown) VH: QVQLQESGPGLVKPSETLSLTCTVSGASISNYRWNWIRQPPGKGLEWIGEINGYSGSTNYNPSLKSRVTISKDASKNQFSLKLTSVTAADTAVYYCPIIGGFTLEWFDVWGPGVLVTVSS VL: DVVLTQSPSSLSASVGDRVTITCRASQGIRNYLNWYQQKPRKAPKLLIYAASSLQSGVPSRFSGSGSGTEFTLTISSLQAEDFATYYCLQGYRTPFTFGPGTKLDIKR | 9 ng/mL | 5 ng/mL | 5 ng/mL
2 | FVM13 (antibody, V domains shown) VH: EVQLVQSGAEVKRPGESLKISCKTSGYTFTSSWISWVRQMPGKGLEWLGSIYPGDSDTRYNPSFQGHVTISADTSIITTHLQWSSLKASDTATYYCVKGSETWGQGVLVTVSS VL: KPMLTQPTSLSASPGASASLTCTFSGGINVAGYNILWYQQKAGSPPRYLLRYKSDSTKDQGSGVPSRFSGSKDASANTGILRISGLQSEDEADYYCAIGHSSGWIFGGGTRLTVL | 3 ng/mL | > 10000 ng/mL | 5 ng/mL
3 | FVM20 (antibody, V domains shown) VH: EVQLVESGAEVKRPGESLTISCKTSGYSFTGSWISWVRQMPGKGLEWLGSIYPGDSETKYNPSFQGHVTISADKSVTTTYLKWSSLKASDTATYYCVKGSETWGQGVLVTVSS VL: NFMLTQSASLSASPGASASLTCTFSGGINVAGYHIFWYQQNPGSPPRYLLRYKSDSEKDQGSGVPSRFSGSKDASANTGILRISGLQSEDEADYYCAIGHSSGWIFGGGTRLTVL | 7 ng/mL | > 10000 ng/mL | 23 ng/mL
4 | FVM09 (antibody, V domains shown) VH: EVQLVQSGAEVKRPGESLTISCKTSGYSFTDSWVAWVRQMPGKGLEWLGSIYPGDSETKYNPSFQGHVTISADKSVTTTYLKWSSLKASDTATYYCVKGSETWGQGVLVTVSS VL: QLVLTQPASLSASPGASASLTCTFSGGINVAGYNILWYQQKAGSPPRYLLRYKSDSTKDQGSGVPSRFSGSKDASANTGILRISGLQSEDEADYYCAIGHSSGWIFGGGTRLTVL | 5 ng/mL | – | 17 ng/mL
5 | FVM02P (antibody, V domains shown) VH: EVQLVESGGGLVQPGGSLRLSCAASGFTGFTFSDYAFYWVRQAPGKGLEWVGFIRGKAYGGTADYAASVKGRFTISRDNSKNTAYLQMSSLKTEDSAVYYCTSQGVTVATPYHWGQGVLVTVSS VL: DIVLTQSPLSLPVTPGEPASISCRSSQSLLHSGGKTYLYWYLQKPGQSPQLLIHEVSNRASGVPDRFSGSGSGTDFTLKISRVEAEDVGVYYCMQGIQLPLTFGGGTKVEIKR | 10 ng/mL | 5 ng/mL | –
6 | FVM04 (antibody, V domains shown) VH: EVQLVQSGGGLVQPGGSMRLSCEASGLSLSDYFMHWVRQAQGKGLEWIGLIQTKAFTYKTEYPAAVKGRFTISRDDSKNTLYLQMSSLKPEDTALYYCIAVTPDFYYWGQGVLVTVSS VL: DVVMTQSPSFLSASVGDRVTITCRASQDITINLNWFQHKPGKAPKRLIYVASRLERGVPSRFSGSGSGTEFTLTISSLQPEDFATYYCQQYNNYPLTFGPGTKLDIKR | 12 ng/mL | 8 ng/mL | 7 ng/mL
